According to patent publication US10364299B2, “Derivatives obtained from hyaluronic acid and carnosine” (CONSIGLIO NAZIONALE DELLE RICERCHE, priority 2014, dated 2019):

Assays:
[1] = Intrinsic viscosity by size exclusion chromatography with triple detector; format: physicochemical; conditions: for Intrinsic viscosity: 40°C, 0.1M sodium nitrate
Protocol: Experiments aimed at determining the molecular weight distribution (MWD) and the intrinsic viscosity of the conjugated HyCar were effected on a CPG/SEC chromatographic system equipped with a Malvern triple detector (ViscoteckTDmax).
The parameters indicated above were determined by means of size exclusion chromatography carried out on the chromatographic system GPCmax VE 2001 (Malvern), equipped with two TSK-GEL GMPWXL columns (7.8 mm ID×30 cm; Viscotek-TOSOH BIOSCIENCE) installed in series. The system is coupled with a system of three detectors positioned in series and comprising: a refraction index detector, a light scattering detector and a four-capillary differential viscometer. The sample was eluted using an aqueous solution 0.1M of sodium nitrate containing 0.5 g/L of sodium azide with a flow of 0.6 ml/min, at 40° C. The software Omnisec 4.1 was used for the acquisition and data analysis.
The physical parameters relating to the intrinsic viscosity and molecular weight (MW), determined at different concentrations for the conjugate of hyaluronic acid-carnosine, compared with those of the corresponding hyaluronic acid, determined by means of size exclusion chromatography coupled with a triple detector, are indicated in Table 1 below.

[2] = target: T1, human serum carnosinase (CN1) (Homo sapiens, UniProt Q96KN2); assay: Enzymatic hydrolysis by human serum carnosinase; format: in vitro ADME; conditions: 900 μM, 37°C, 50 mM Tris/HCl pH 8.0, 5 hours; versus non-conjugated carnosine
T1 construct: made in house; host or cells: HeLa cells, stably transfected; enzyme purified from the culture medium
T1 sequence (Q96KN2 26-507): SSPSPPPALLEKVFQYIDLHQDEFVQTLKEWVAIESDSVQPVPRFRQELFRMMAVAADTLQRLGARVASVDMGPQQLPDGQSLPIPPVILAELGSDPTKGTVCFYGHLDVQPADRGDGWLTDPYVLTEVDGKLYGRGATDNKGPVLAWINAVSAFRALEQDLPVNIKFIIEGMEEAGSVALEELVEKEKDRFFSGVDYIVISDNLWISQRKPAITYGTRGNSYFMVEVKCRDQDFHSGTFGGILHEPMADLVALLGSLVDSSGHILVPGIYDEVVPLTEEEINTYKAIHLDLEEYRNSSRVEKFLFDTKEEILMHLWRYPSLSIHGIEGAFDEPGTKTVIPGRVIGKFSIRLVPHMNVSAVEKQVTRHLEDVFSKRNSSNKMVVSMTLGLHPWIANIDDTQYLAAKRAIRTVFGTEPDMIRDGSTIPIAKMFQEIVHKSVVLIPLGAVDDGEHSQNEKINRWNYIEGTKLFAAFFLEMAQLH
Protocol: The time-dependent stability of HyCar with respect to human serum carnosinase, compared with the stability of the mixture of carnosine+HA or carnosine alone, was determined by incubating each of these substances (900 μM) at 37° C. in 50 mM Tris/HCl (pH 8.0) with the above-mentioned enzyme (CN1), purified by the culture medium of Hela cells stably transfected as previously indicated (Antioxid. Redox Signal., 11, 2759, 2009). A parallel experiment was effected as negative control, in which hyaluronic acid alone was subjected to enzymatic action. The course of the reaction was followed by collecting, at various time intervals, 50 μl aliquots of the mixture for a total of 5 hours, and, after deproteinization with trichloroacetic acid (TCA), fluorometrically determining the quantity of histidine in the final solution, after reaction with ortho-phthalic aldehyde (OPA; Fluka), according to a procedure already described (Clin. Chim. Acta, 1982, 123, 221).
More specifically, FIG. 5 indicates the stability with time of HyCar (●), subjected to the action of human serum carnosinase, compared with the stability of carnosine (▪), carnosine+HA (▴), and HA alone (♦)(the latter used as negative control of the experiment). The histidine released was spectrophotometrically determined as OPA-derivative.

Substance: conjugated 3-N-hyaluronyl of 2-(3-aminopropanamide)-3-(1H-imidazol-4-yl)propanoic acid [HyCar (7%)190 kD]
- intrinsic viscosity compared with non-conjugated hyaluronic acid of the same MW (in words) [1]: only slightly lower
- Intrinsic viscosity ([1]; theoretical conc. 0.1 mg/ml): 4.9 dL/g
- Intrinsic viscosity ([1]; theoretical conc. 0.25 mg/ml): 4.8 dL/g
- Intrinsic viscosity ([1]; theoretical conc. 0.5 mg/ml): 4.8 dL/g
- resistance to the action of human serum carnosinase [2]: greater resistance
